Square brackets hold non-standard residues; d marks the D form. Ends that are not written are not given here. pY = N[C@@H](Cc1ccc(OP(=O)(O)O)cc1)C(=O)O
Tests used:
[1] = system: various cancer cells transplanted into mice; conditions: cited from earlier work
[2] = target: T1, binding of the auto-phosphorylated KDR/Flk-1 and PLC-γ (Homo sapiens, UniProt P19174+P35968); assay: In vitro binding of GST-PLC-γ C-SH2 to KDR/Flk-1 from NIH3T3-KDR cell extract; type: biochemical; conditions: coexisting with GST-PLC-γ C-SH2 beads and extract of VEGF-stimulated NIH3T3-KDR
T1 construct: a fusion protein of GST and SH2 domain of the C-terminal side of PLC-γ (GST-PLC-γ C-SH2); host or cells: NIH3T3-KDR cell extract (KDR/Flk-1)
Method: Onto glutathione-Sepharose 4B beads (manufactured by Amersham Pharmacia Biotech), 1.5 μg of GST, a fusion protein of GST and SH2 domain (2 domains) of PLC-γ (GST-PLC-γ SH2-SH2), a fusion protein of GST and SH2 domain of the N-terminal side of PLC-γ (GST-PLC-γ N-SH2) and a fusion protein of GST and SH2 domain of the C-terminal side of PLC-γ (GST-PLC-γ C-SH2) (all manufactured by Santa Cruz Biotechnology Inc.) was immobilized respectively, and the cell extracts were added thereto, followed by incubation at 4° C. for 2 hours. The beads were washed three times with a cooled cell extraction buffer and heated in an SDS sample buffer to dissolve the protein bound to the beads, and then SDS-PAGE was carried out. The KDR/Flk-1 bound to each of the added proteins was detected by immunoblotting using the anti-KDR/Flk-1 antibody. The KDR/Flk-1 was detected in the VEGF-stimulated cell with GST-PLC-γ SH2-SH2 and GST-PLC-γ C-SH2, but KDR/Flk-1 was not detected with GST-PLC-γ N-SH2.
The same test of (2) was carried out by allowing the anti-PY1175 antibody and the PY1175 peptide to coexist at the time of the reaction of GST-PLC-γ C-SH2-immobilized beads with the cell extract. As a result, KDR/Flk-1 was not detected even in the VEGF-stimulated cell, and binding of the auto-phosphorylated KDR/Flk-1 and PLC-γ was inhibited by the anti-PY1175 antibody and the PY1175 peptide.

[3] = target: T2, 1175-tyrosine phosphorylated KDR/Flk-1 (Homo sapiens, UniProt P35968); assay: Tissue immunostaining of human umbilical cord vein endothelial cells; type: cell-based; conditions: 1 μg/ml peptide; cells 5 minutes after the VEGF stimulation
T2 construct: expressing endogenous KDR/Flk-1; host or cells: human umbilical cord vein endothelial cells (HUVEC)
Method: After blocking the fixed cells for 30 minutes with PBS containing 1% goat serum, tissue immunostaining was carried out using the anti-PY1175 antibody. The detection was carried out by fluorescence microscopic observation 30 minutes after treatment with an FITC-labeled anti-rabbit IgG antibody (manufactured by Cappel) diluted to 1/100. […] Accordingly, the anti-PY1175 antibody was useful for the detection of the 1175-tyrosine phosphorylation of KDR/Flk-1 by not only immunoblotting but also tissue immunostaining.

Flt-1 = Flt-1 (Homo sapiens, UniProt P17948); conditions: VEGF binding to Flt-1; cited from earlier work
[4] = target: T3, mutated KDR/Flk-1 Y1175F (1175-tyrosine replaced by phenylalanine) (human, UniProt P35968 20-1356); assay: immunoprecipitation with anti-KDR/Flk-1 antibody, immunoblotting with anti-PLC-γ antibody
T3 construct: Expressed in MSS31 cells by an adenovirus vector, VEGF-stimulated; cell extract; Phosphorylation at other tyrosines not specified

Cc1cc(C)c(/C=C2\C(=O)Nc3ccccc32)[nH]1 [SU5416]
angiogenesis, growth or metastasis of cancer cells [1]: inhibits angiogenesis, growth or metastasis

PY1175 peptide: SEQ ID NO:1: cysteine added to N-terminus of positions 1171 to 1180 of human KDR/Flk-1, tyrosine 1175 phosphorylated (CDGKD[pY]IVLPI)
inhibition of binding of auto-phosphorylated KDR/Flk-1 and PLC-γ (GST-PLC-γ C-SH2) [2]: inhibited | inhibition of anti-PY1175 antibody staining by coexisting peptide [3]: staining was inhibited

Y1175 peptide: SEQ ID NO:2: the same amino acid sequence of the PY1175, but the tyrosine is not phosphorylated (CDGKDYIVLPI; a peptide SEQ ID NO1 without phosphorylation) [reference compound]
inhibition of binding of auto-phosphorylated KDR/Flk-1 and PLC-γ (GST-PLC-γ C-SH2) [2]: inhibition was not found

vascular endothelial growth factor [VEGF]
Kd (Flt-1): 20 pM

B1: phospholipase C-γ (PLC-γ) (enzyme, mouse, UniProt Q62077 2-1302, looked up)
chain: AGVATPCANGCGPGAPSEAEVLHLCRSLEVGTVMTLFYSKKSQRPERKTFQVKLETRQITWSRGADKIEGSIDIREIKEIRPGKTSRDFDRYQEDPAFRPDQSHCFVILYGMEFRLKTLSLQATSEDEVNMWIKGLTWLMEDTLQAATPLQIERWLRKQFYSVDRNREDRISAKDLKNMLSQVNYRVPNMRFLRERLTDLEQRSGDITYGQFAQLYRSLMYSAQKTMDLPFLETNALRTGERPEHCQVSLSEFQQFLLEYQGELWAVDRLQVQEFMLSFLRDPLREIEEPYFFLDELVTFLFSKENSVWNSQLDAVCPDTMNNPLSHYWISSSHNTYLTGDQFSSESSLEAYARCLRMGCRCIELDCWDGPDGMPVIYHGHTLTTKIKFSDVLHTIKEHAFVASEYPVILSIEDHCSIAQQRNMAQHFRKVLGDTLLTKPVDIAADGLPSPNQLRRKILIKHKKLAEGSAYEEVPTSVMYSENDISNSIKNGILYLEDPVNHEWYPHYFVLTSSKIYYSEETSSDQGNEDEEEPKEASSSTELHSSEKWFHGKLGAGRDGRHIAERLLTEYCIETGAPDGSFLVRESETFVGDYTLSFWRNGKVQHCRIHSRQDAGTPKFFLTDNLVFDSLYDLITHYQQVPLRCNEFEMRLSEPVPQTNAHESKEWYHASLTRAQAEHMLMRVPRDGAFLVRKRNEPNSYAISFRAEGKIKHCRVQQEGQTVMLGNSEFDSLVDLISYYEKHPLYRKMKLRYPINEEALEKIGTAEPDYGALYEGRNPGFYVEANPMPTFKCAVKALFDYKAQREDELTFTKSAIIQNVEKQDGGWWRGDYGGKKQLWFPSNYVEEMINPAVLEPEREHLDENSPLGDLLRGVLDVPACQIAIRPEGKNNRLFVFSISMPSVAQWSLDVAADSQEELQDWVKKIREVAQTADARLTEGKMMERRKKIALELSELVVYCRPVPFDEEKIGTERACYRDMSSFPETKAEKYVNKAKGKKFLQYNRLQLSRIYPKGQRLDSSNYDPLPMWICGSQLVALNFQTPDKPMQMNQALFMAGGHCGYVLQPSTMRDEAFDPFDKSSLRGLEPCVICIEVLGARHLPKNGRGIVCPFVEIEVAGAEYDSTKQKTEFVVDNGLNPVWPAKPFHFQISNPEFAFLRFVVYEEDMFSDQNFLAQATFPVKGLKTGYRAVPLKNNYSEDLELASLLIKIDIFPAKENGDLSPFSGISLRERASDASSQLFHVRAREGSFEARYQQPFEDFRISQEHLADHFDSRERSTSDGPSSATNLIEDPLHDKLWKCSL
notes: whole, on cells; Endogenous intracellular PLC-γ co-precipitated with KDR/Flk-1 from MSS31 cell extracts
binding result [4]: no binding

Source: patent publication US20030022247A1, “Substance which inhibits binding of information transfer molecule for 1175-tyrosine phosphorylated KDR/FLK-1 and usages of the same” (priority 2000, published 2003)
